# Experimental data reported in paper doi:10.1101/862326.
# Where two headings read alike, the source gives them in different places.
# T1: TRBP2-dsRBD1 (UniProt Q15633 1-105)
# T1 sequence: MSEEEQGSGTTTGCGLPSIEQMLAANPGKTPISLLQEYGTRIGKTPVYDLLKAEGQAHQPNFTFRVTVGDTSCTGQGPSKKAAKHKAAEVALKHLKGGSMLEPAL
# T2: dADAR-dsRBD1 (UniProt Q9NII1 48-140)
# T2 sequence: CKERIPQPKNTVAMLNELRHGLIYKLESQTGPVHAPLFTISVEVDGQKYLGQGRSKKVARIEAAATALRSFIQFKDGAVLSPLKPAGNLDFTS
# Tests used:
# Test in all cases: ITC
# [1] = molecular target: T1, TRBP2-dsRBD1
# [2] = molecular target: T2, dADAR-dsRBD1
# [3] = molecular target: T2, dADAR-dsRBD1; remark: listed apart in the source
# [4] = molecular target: T1, TRBP2-dsRBD1; remark: listed apart in the source
# [5] = molecular target: T1, TRBP2-dsRBD1; remark: listed apart in the source
# [6] = molecular target: T2, dADAR-dsRBD1; remark: listed apart in the source
# [7] = molecular target: T1, TRBP2-dsRBD1; remark: listed apart in the source
# [8] = molecular target: T2, dADAR-dsRBD1; remark: listed apart in the source
# [9] = molecular target: T2, dADAR-dsRBD1; remark: listed apart in the source
# [10] = molecular target: T1, TRBP2-dsRBD1; remark: listed apart in the source
binder,measurement,setting,value
miR-16-1-B (dsRNA) RNA 1: UAGCAGCACGUAAAUAUUGGCG RNA 2: CCAGUAUUUACUGUGCUGCUGAA,Kd,[1],690 ± 130 nM
same,Kd,[2],270 ± 70 nM
D10RNA (dsRNA) RNA 1: UUAUAAAUGC RNA 2: GCAUUUAUGA,Kd,[3],210 ± 100 nM
same,Kd,[4],2210 ± 510 nM
miR-16-1-M (dsRNA) RNA 1: UAGCAGCACGUAAAUAUUGGCG RNA 2: CCAGUAUUAACGUGCUGCUGAA,Kd,[5],2120 ± 220 nM
same,Kd,[6],780 ± 240 nM
miR-16-1 (dsRNA) RNA 1: UAGCAGCACGUAAAUAUUGGCG RNA 2: CCAGUAUUAACUGUGCUGCUGAA,Kd,[7],890 ± 210 nM
same,Kd,[8],270 ± 50 nM
miR-16-1-D (dsRNA) RNA 1: UAGCAGCACGUAAAUAUUGGCG RNA 2: CCAGUAUUUACGUGCUGCUGAA,Kd,[9],430 ± 100 nM
same,Kd,[10],500 ± 40 nM
